# B1: NAD-dependent protein deacetylase sirtuin-1 (Homo sapiens), Q96EB6 (parent)
# chain: MADEAALALQPGGSPSAAGADREAASSPAGEPLRKRPRRDGPGLERSPGEPGGAAPEREVPAAARGCPGAAAAALWREAEAEAAAAGGEQEAQATAAAGEGDNGPGLQGPSREPPLADNLYDEDDDDEGEEEEEAAAAAIGYRDNLLFGDEIITNGFHSCESDEEDRASHASSSDWTPRPRIGPYTFVQQHLMIGTDPRTILKDLLPETIPPPELDDMTLWQIVINILSEPPKRKKRKDINTIEDAVKLLQECKKIIVLTGAGVSVSCGIPDFRSRDGIYARLAVDFPDLPDPQAMFDIEYFRKDPRPFFKFAKEIYPGQFQPSLCHKFIALSDKEGKLLRNYTQNIDTLEQVAGIQRIIQCHGSFATASCLICKYKVDCEAVRGDIFNQVVPRCPRCPADEPLAIMKPEIVFFGENLPEQFHRAMKYDKDEVDLLIVIGSSLKVRPVALIPSSIPHEVPQILINREPLPHLHFDVELLGDCDVIINELCHRLGGEYAKLCCNPVKLSEITEKPPRTQKELAYLSELPPTPLHVSEDSSSPERTSPPDSSVIVTLLDQAAKSNDDLDVSESKGCMEEKPQEVQTSRNVESIAEQMENPDLKNVGSSTGEKNERTSVAGTVRKCWPNRVAKEQISRRLDGNQYLFLPPNRYIFHGAEVYSDSEDDVLSSSSCGSNSDSGTCQSPSLEEPMEDESEIEEFYNGLEDEPDVPERAGGAGFGTDGDDQEAINEAISVKQEVTDMNYPSNKS
# Variants of: B1
# Settings: with csk21_human CSNK2A1, P68400
# Sequence of csk21_human CSNK2A1, P68400 (P68400 whole entry, looked up): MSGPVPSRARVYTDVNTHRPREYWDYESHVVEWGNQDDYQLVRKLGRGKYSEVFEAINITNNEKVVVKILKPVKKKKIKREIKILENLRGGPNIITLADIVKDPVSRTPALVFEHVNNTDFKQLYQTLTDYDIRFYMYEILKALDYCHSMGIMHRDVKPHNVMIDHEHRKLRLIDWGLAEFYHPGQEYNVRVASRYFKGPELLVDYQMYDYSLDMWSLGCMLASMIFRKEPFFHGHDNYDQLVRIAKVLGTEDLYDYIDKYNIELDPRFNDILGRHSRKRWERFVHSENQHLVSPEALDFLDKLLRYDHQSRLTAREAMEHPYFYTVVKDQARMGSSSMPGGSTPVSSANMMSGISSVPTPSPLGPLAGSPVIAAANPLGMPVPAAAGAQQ
row,Variant,effect of a mutation on the interaction
1,S659A;S661A,decreasing interaction
